For 72 sequences, protein stability index results are on record in the supplement of paper PMC10567573.

This data set can be described thus: protein stability index of a GFP-peptide fusion (GPS, HEK-293T) (PSI 1-6); higher = more stable.
Setting [1] is: treatment: DMSO, c terminus: a fixed tail appended.
The mark [2] stands for this setting: treatment: MLN4924 1 uM, 8 h, c terminus: a fixed tail appended.

± gives the standard deviation.
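Also: 24-mer peptide tiles fused after GFP, lentivirally expressed, FACS-sorted into six equal bins by GFP/DsRed ratio, decoded by Illumina sequencing, PSI is the read-weighted mean bin number.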

Take CQALDANLDANLAFASFTSGVVRI [TLE6]: the protein stability index reads like this: under setting [1], 2.66 ± 0.67; under setting [2], 2.56 ± 0.37.
In the case of CRLAKGENGYGFHLNAIRGLPGSF [PDZK1], the protein stability index by setting is: under setting [1], 2.08 ± 0.69; under setting [2], 2.07 ± 0.24.
For CTNTYVTGLSMIANGGAICAVTFF [OR4A15], in that order: 3.25 ± 0.52 and 3.33 ± 0.38.
CVPGQVFSPDGPSRFRKAYKPEQP [LOXL2]: the protein stability index under setting [1] was determined as 3.17 ± 0.19 and the protein stability index under setting [2] stood at 3.33 ± 0.091.
Consider CWPMMDFLRCVTAALIYFAISITA [CMTM3], for which the protein stability index was found to be 3.23 ± 0.49 under setting [1] and 3.34 ± 0.26 under setting [2].
Regarding CWSFYGQGRKIAEVCCTSIVYATE [KCTD13], the protein stability index by setting is: under setting [1], 2.88 ± 0.6; under setting [2], 2.97 ± 0.79.
On the same counts, the results for DAGEGIQCSQRMLSFSDALLSIIA [TMEM175] are 2.25 ± 0.091 and 2.35 ± 0.3.
On the same counts, the results for DAGPMVVHCSAGVGRTGCFIVIDA [PTPRD] are 2.73 ± 1.3 and 2.7 ± 0.76.
On the same counts, the results for DAMLKEASGPINFTMFLNLFGEKL [MYL5] are 2.23 ± 0.55 and 2.27 ± 0.28.
As to DDDDEEEEVSEVESFILDQDDLEN [ANKRD17], the protein stability index came out at 5.765 ± 0.056 under setting [1] and 5.68 ± 0.13 under setting [2].
For DDIKESLESEGKNSKKEEPQELLQ [ATE1], in that order: 5.65 ± 0.2 and 5.61 ± 0.13.
As to DDLTSVTNHGYRVQVENPERFSSA [TRIM35], the protein stability index was determined as 4.44 ± 0.24 under setting [1] and 4.588 ± 0.031 under setting [2].
On the same counts, the results for DEDDSEELEEDDGHGAEQAAAFPT [EHMT1] are 5.58 ± 0.27 and 5.7 ± 0.29.
On the same counts, the results for DEEDCPNPEEYNLDEPNAESDYTY [SRPK2] are 5.57 ± 0.37 and 5.66 ± 0.15.
Sequence DEMLSYLPGGTTGLQLPSTLPVSG [TFE3] registered a protein stability index under setting [1] of 3.95 ± 0.26 and a protein stability index under setting [2] of 4.15 ± 0.21.
For DEVIDVMQENITKVIERGERLDEL [VAMP4], in that order: 4.77 ± 0.32 and 4.88 ± 0.28.
For DFDLDLVPWESDIWDINNQICTVK [ATF6], in that order: 3.06 ± 0.3 and 3 ± 0.21.
For DFWLMVWEQKVLVIVMTTRFEEGG [PTPN9], in that order: 2.69 ± 0.77 and 2.58 ± 0.07.
DGAEIAEKFVFFIGSKNGGKTTII [DYNC2LI1]: the protein stability index reads like this: under setting [1], 2.26 ± 0.78; under setting [2], 2.05 ± 0.54.
On the same counts, the results for DGDDKVFRRAPSWRKRFRPREHHG [PPFIA4] are 3.48 ± 0.55 and 4.58 ± 0.14.
On the same counts, the results for DKPSEPASEEGSESEGSESSGRSC [SMG5] are 5.56 ± 0.25 and 5.6 ± 0.14.
For DKTCSKTKNKSKHALRKKQLKRQK [FAM9B], in that order: 4.49 ± 0.21 and 4.59 ± 0.23.
DKVIMKLGKTNAKAVSEMRQKIWN [DYNC2LI1]: the protein stability index by setting is: under setting [1], 2.31 ± 0.12; under setting [2], 2.54 ± 0.32.
On the same counts, the results for DKVSDGVTKSPEKRSSLPRPSSIL [MAP2] are 4.88 ± 0.14 and 4.99 ± 0.26.
With DLDSCSRDGALLGCSLTADGLPLH [MYORG], the protein stability index under setting [1] came out at 3.32 ± 0.28 and the protein stability index under setting [2] turned out to be 3.51 ± 0.3.
For DLEVDMNKTEVTPRLWTTCRDGEV [ACSBG2], in that order: 3.96 ± 0.15 and 3.95 ± 0.064.
On the same counts, the results for DLGHVTRISSPQVEEGDSRFLANE [WEE1] are 4.88 ± 0.29 and 4.96 ± 0.27.
For the sequence DLLFIVDTMLEEVENKEKDSNMPH [CEP70], the protein stability index is, setting by setting: under setting [1], 2.29 ± 0.24; under setting [2], 2.76 ± 0.38.
On the same counts, the results for DLSGIQTSDAAFLTQWKDSLVSLV [ZER1] are 2.37 ± 0.33 and 2.49 ± 0.26.
For DLVPAALGSLTTAQIARSVWRPW [HES6], the protein stability index is 2.09 ± 0.17 (treatment: DMSO, c terminus: native) and 2.32 ± 0.43 (treatment: MLN4924 1 uM, 8 h, c terminus: native).
In turn, DPEEAIRHDVIVSIVTAAKKDILL [PDS5B] gave a protein stability index under setting [1] of 2.3 ± 0.15 and a protein stability index under setting [2] of 2.54 ± 0.3.
For DPKITCKQECLITTFQDVYFVSES [TPH1], in that order: 2.5 ± 0.36 and 2.14 ± 0.49.
As for DQLNDGQDFAKDLLKTLYNSIKNE [PSD2], the protein stability index is, setting by setting: under setting [1], 3.56 ± 0.21; under setting [2], 3.71 ± 0.32.
In the case of DRARRFEEALRKNTEEQLEIALAP [MTUS2], the protein stability index amounted to 4.9 ± 0.22 under setting [1] and 4.85 ± 0.28 under setting [2].
For DRDGHIKLTDFGFAKKLVDRTWTL [PRKX], in that order: 2.1 ± 0.35 and 2.35 ± 0.42.
On to DRTSLATFHEGKHNISHMSMDIAR [WDFY1], for which the protein stability index is, setting by setting: under setting [1], 3.54 ± 0.24; under setting [2], 3.56 ± 0.33.
For DTFKVPKEMFTVGCCVFAFLVGLL [SLC6A17], in that order: 2.3 ± 0.51 and 2.21 ± 0.6.
For DTMQNIESTIVELGSIFQQLAHMV [STX5], in that order: 2.47 ± 0.13 and 2.52 ± 0.38.
For DTTRQVQRISCFQSTVKCLTVLQR [WDR41], in that order: 2.42 ± 0.33 and 2.63 ± 0.35.
Take DVQARLNRSDHGIFHSRTSLQKLS [FCHSD1]: the protein stability index runs as follows: under setting [1], 3.09 ± 0.22; under setting [2], 3.16 ± 0.3.
Consider DVRQNPCGSKACRRLFGPVDSEQL [CDKN1A], for which the protein stability index came to 3.03 ± 0.2 under setting [1] and 3.12 ± 0.28 under setting [2].
For DWFTSYVKNVVSGGFPIIRDQIFR [FBXO3], in that order: 2.61 ± 0.34 and 2.41 ± 0.39.
On the same counts, the results for EAAGSFTSSLAQPGAYYPYERTLG [IRX6] are 3.24 ± 0.14 and 3.28 ± 0.42.
On the same counts, the results for EACMTHLHYKWIPVEDSHTADISS [DUSP5] are 3.53 ± 0.23 and 3.63 ± 0.11.
For EAIKNEMNVMLKSSPVDLVTATDQ [IMPA1], the protein stability index came out at 4.21 ± 0.11 under setting [1] and 4.67 ± 0.17 under setting [2].
On the same counts, the results for EAITSASFLEQIMAPLQPSTSRAH [FAM189A2] are 3.52 ± 0.13 and 3.59 ± 0.22.
For EALYAQDPSTGCYMYYFQYLSKTY [KMT5A], in that order: 3.26 ± 0.94 and 2.42 ± 1.1.
On the same counts, the results for EAVARHMLIFSLALEEPEKMGLQE [DNAAF3] are 2.47 ± 0.55 and 2.28 ± 0.27.
For the sequence EAVFLRAVKLYNSGDFRSSTEDME [P3H4], the protein stability index was found to be 3.69 ± 0.36 under setting [1] and 3.73 ± 0.52 under setting [2].
For EDLQDGDVRMGGSFRGAFSNSEKA [NET1], in that order: 4.98 ± 0.63 and 5.252 ± 0.051.
For EDSILGDPKKLLTQHFVQENYLEY [MAGEA3], in that order: 3.75 ± 0.36 and 3.79 ± 0.28.
On the same counts, the results for EDVTVGRRQAVAWLVAMHKAAKLL [ZFYVE21] are 2.48 ± 0.34 and 2.59 ± 0.35.
Take EDYSAEYIIQQGGWGTVFSLESEE [BCL2L13]: the protein stability index is 4.17 ± 0.29 under setting [1] and 3.96 ± 0.46 under setting [2].
On the same counts, the results for EECAKWLLLNNANPNLSNRRGSTP [RIPK4] are 3.56 ± 0.17 and 3.71 ± 0.067.
In the case of EEDKDEKSSIYESDFQIEPGFYAT [MIA2], the protein stability index under setting [1] worked out at 4.61 ± 0.062 and the protein stability index under setting [2] was determined as 4.46 ± 0.4.
Consider EEEEEEEGSGHSTGEDSAFQEPDS [WEE1], for which the protein stability index under setting [1] was 5.7 ± 0.16 and the protein stability index under setting [2] is 5.62 ± 0.11.
On the same counts, the results for EEFISNTLFKKIQALQKEKETLAV [CCDC6] are 3.27 ± 0.33 and 3.39 ± 0.33.
For EEIDVDGKFIRLKNTSEQDQPMGG [LMNB1], in that order: 5.15 ± 0.46 and 5.47 ± 0.43.
For EELNKEVASNSELVQSSRSEVTEL [KRT16], in that order: 5.51 ± 0.16 and 5.55 ± 0.24.
With EERLERCMSIVTSMTAGVSEREAN [INTS3], the protein stability index stood at 4.84 ± 0.35 under setting [1] and 4.78 ± 0.29 under setting [2].
For EFIRDILIHPELNEGLMKWENRHE [ELF3], in that order: 2 ± 0.27 and 2.3 ± 0.48.
For EGASPLSERCQRQLQSLCRGLGLG [FANCE], in that order: 3.31 ± 0.13 and 3.02 ± 0.32.
Take EGEPATQRQDPAAAQEGEDEGASA [GAGE1]: the protein stability index under setting [1] was determined as 5.55 ± 0.11 and the protein stability index under setting [2] is 5.56 ± 0.26.
On the same counts, the results for EGNECKKMDMSVLEISGIIMSRVN [PHTF1] are 2.55 ± 0.37 and 2.46 ± 0.31.
On the same counts, the results for EGRLERRECGLAAPRFSFNDPSGS [IRX6] are 3.79 ± 0.27 and 3.98 ± 0.2.
For EHPNLVRDHVETELLKEAELIRNI [TEKT4], in that order: 4.6 ± 0.12 and 4.56 ± 0.21.
Regarding EHQPDNIKALFRKGKVLAQQGEYS [FKBP8], the protein stability index reads like this: under setting [1], 3.97 ± 0.36; under setting [2], 3.87 ± 0.19.
EIPENYNSAMPFKILYDDGKMVEE [PTPRD] gave a protein stability index under setting [1] of 4.55 ± 0.2 and a protein stability index under setting [2] of 4.79 ± 0.071.
On the same counts, the results for EISEAFTSTGFDRHTSPVFSPANP [BCL2L13] are 3.9 ± 0.24 and 3.99 ± 0.25.
On the same counts, the results for EITTQFLIYASYFALIAVVFLASG [SLC19A2] are 3.12 ± 0.9 and 3.33 ± 0.31.
With EKAHECTDCGKAFLKKSQLTEHKR [ZNF649], the protein stability index stood at 3.54 ± 0.29 under setting [1] and 3.81 ± 0.38 under setting [2].
Take EKFVFFIGSKNGGKTTIILRCLDR [DYNC2LI1]: the protein stability index reads like this: under setting [1], 3.27 ± 0.27; under setting [2], 2.53 ± 0.22.
